Biological target: T1, MqsR (E. coli, UniProt Q46865 1-98)
T1 construct: also called MqsR toxin; 15N-labeled MqsR
Test: NMR titration; unlabeled MqsA(1-76) titrated into 15N-labeled MqsR (50 uM); 2D [1H,15N] HSQC; 298 K; 50 mM NaCl, 20 mM Na phosphate pH 6.5, 0.5 mM TCEP, 10% D2O
Conditions: both partners purified

T1 sequence (Q46865 whole entry): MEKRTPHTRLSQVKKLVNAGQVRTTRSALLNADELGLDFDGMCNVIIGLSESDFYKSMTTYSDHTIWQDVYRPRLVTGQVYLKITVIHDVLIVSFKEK

B1: N-terminal toxin-binding domain of MqsA (residues 1-76) (domain or fragment)
chain: MKCPVCHQGEMVSGIKDIPYTFRGRKTVLKGIHGLYCVHCEESIMNKEESDAFMAQVKAFRASVNAETVAPEFIVK
notes: also called MqsA_(1-76); unlabeled MqsA_(1-76)
B1: binds.

Source: publication PMC9636575, “MqsR is a noncanonical microbial RNase toxin that is inhibited by antitoxin MqsA via steric blockage of substrate binding” (The Journal of Biological Chemistry, 2022)
